EC50 data for twelve molecules are collected here from patent publication US20240116985A1 (published 2024).

Usually EC50 stands for the concentration at which the effect is half-maximal. High values mean lower potency in that assay, low ones higher potency in that assay.

The labels stand for the following.
T1: full-length beta-Catenin (Uniprot ID P35222) (Homo sapiens (Human), UniProt P35222 1-781)
T1 construct: the AlphaScreen used a Histidine (Nickel Chelate) detection kit, so a His tag is likely but not described; also called B-Catenin; bCat
T1 sequence: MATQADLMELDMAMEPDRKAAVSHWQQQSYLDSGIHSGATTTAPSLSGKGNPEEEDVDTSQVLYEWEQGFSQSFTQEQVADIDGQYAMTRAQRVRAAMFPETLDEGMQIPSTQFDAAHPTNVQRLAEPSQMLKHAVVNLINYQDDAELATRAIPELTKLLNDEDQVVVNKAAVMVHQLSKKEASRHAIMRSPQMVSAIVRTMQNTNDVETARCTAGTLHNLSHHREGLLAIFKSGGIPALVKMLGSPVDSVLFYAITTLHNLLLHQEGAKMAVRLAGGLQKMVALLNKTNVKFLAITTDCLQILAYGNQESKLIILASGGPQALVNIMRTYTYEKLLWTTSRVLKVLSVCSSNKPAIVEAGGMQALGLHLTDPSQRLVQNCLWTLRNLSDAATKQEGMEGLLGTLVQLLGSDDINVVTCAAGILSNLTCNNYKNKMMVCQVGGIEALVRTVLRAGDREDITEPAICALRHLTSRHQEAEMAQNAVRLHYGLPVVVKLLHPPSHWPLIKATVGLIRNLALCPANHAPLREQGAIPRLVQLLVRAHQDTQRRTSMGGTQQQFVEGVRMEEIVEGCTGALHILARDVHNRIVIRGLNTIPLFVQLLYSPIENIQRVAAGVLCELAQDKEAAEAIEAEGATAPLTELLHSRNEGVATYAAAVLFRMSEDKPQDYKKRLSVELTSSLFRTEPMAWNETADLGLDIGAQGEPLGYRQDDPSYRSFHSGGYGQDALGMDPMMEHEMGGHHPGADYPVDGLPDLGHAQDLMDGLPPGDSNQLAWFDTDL

B1: I-307 (peptide)
peptide: Ac-[αAllylPro]DA[B5(4)]DDAA[Phe(3-Cl)]V[S8]FWQ-NH2
modifications: staple 1-4, 4-11; not fully specified; printed as Ac-PL3-Asp-Ala-B5-Asp-Asp-Ala-Ala-3C1F-Val-S8-Phe-Trp-Gln-NH2
notes: Ac-PL3-Asp-Ala-B5-Asp-Asp-Ala-Ala-3C1F-Val-S8-Phe-Trp-Gln-NH2; stapled peptide composition
B2: I-328 (peptide)
peptide: Ac-[αAllylPro]DA[B5(4)]DDAA[Ala(2-furyl)]V[S8]FWQ-NH2
modifications: staple 1-4, 4-11; not fully specified; printed as Ac-PL3-Asp-Ala-B5-Asp-Asp-Ala-Ala-2FurA-Val-S8-Phe-Trp-Gln-NH2
notes: Ac-PL3-Asp-Ala-B5-Asp-Asp-Ala-Ala-2FurA-Val-S8-Phe-Trp-Gln-NH2; stapled peptide composition
B3: I-327 (peptide)
peptide: Ac-[αAllylPro]DA[B5(4)]DDAA[Ala(2-furyl)]V[S8]FWQ-NH2
modifications: staple 1-4, 4-11; not fully specified; printed as Ac-PL3-Asp-Ala-B5-Asp-Asp-Ala-Ala-2FurA-Val-S8-Phe-Trp-Gln-NH2
notes: as for B2
B4: I-308 (peptide)
peptide: Ac-[αAllylPro]DA[B5(4)]DDAA[Phe(4-Cl)]V[S8]FWQ-NH2
modifications: staple 1-4, 4-11; not fully specified; printed as Ac-PL3-Asp-Ala-B5-Asp-Asp-Ala-Ala-4C1F-Val-S8-Phe-Trp-Gln-NH2
notes: Ac-PL3-Asp-Ala-B5-Asp-Asp-Ala-Ala-4C1F-Val-S8-Phe-Trp-Gln-NH2; stapled peptide composition
B5: I-322 (peptide)
peptide: Ac-[αAllylPro]DA[B5(11)]DDAA[Phe(4-NH2)]V[S8]FWQ-NH2
modifications: staple 1-4, 4-11; not fully specified; printed as Ac-PL3-Asp-Ala-B5-Asp-Asp-Ala-Ala-4AmPhe-Val-S8-Phe-Trp-Gln-NH2
notes: Ac-PL3-Asp-Ala-B5-Asp-Asp-Ala-Ala-4AmPhe-Val-S8-Phe-Trp-Gln-NH2; stapled peptide composition
B6: I-306 (peptide)
peptide: Ac-[αAllylPro]DA[B5(4)]DDAA[Phe(3-Cl)]V[S8]FWQ-NH2
modifications: staple 1-4, 4-11
notes: as for B1
B7: I-305 (peptide)
peptide: Ac-[αAllylPro]DA[B5(4)]DHAAFV[S8]FWQ-NH2
modifications: staple 1-4, 4-11
notes: Ac-PL3-Asp-Ala-B5-Asp-His-Ala-Ala-Phe-Val-S8-Phe-Trp-Gln-NH2; stapled peptide composition
B8: I-304 (peptide)
peptide: Ac-[αAllylPro]DA[B5(4)]DHAAFV[S8]FWQ-NH2
modifications: staple 1-4, 4-11
notes: as for B7
B9: I-331 (peptide)
peptide: Ac-[αAllylPro]DA[B5(14)]DDAAHV[S8]FWQ-NH2
modifications: staple 1-4, 4-11; not fully specified (residue 9)
notes: Ac-PL3-Asp-Ala-B5-Asp-Asp-Ala-Ala-3meH-Val-S8-Phe-Trp-Gln-NH2; stapled peptide composition
B10: I-329 (peptide)
peptide: Ac-[αAllylPro]DA[B5(4)]DDAA[His(τ-Me)]V[S8]FWQ-NH2
modifications: staple 1-4, 4-11; not fully specified; printed as Ac-PL3-Asp-Ala-B5-Asp-Asp-Ala-Ala-1meH-Val-S8-Phe-Trp-Gln-NH2
notes: Ac-PL3-Asp-Ala-B5-Asp-Asp-Ala-Ala-1meH-Val-S8-Phe-Trp-Gln-NH2; stapled peptide composition
B11: I-330 (peptide)
peptide: Ac-[αAllylPro]DA[B5(4)]DDAA[His(τ-Me)]V[S8]FWQ-NH2
modifications: staple 1-4, 4-11
notes: as for B10
B12: I-326 (peptide)
peptide: Ac-[αAllylPro]DA[B5(4)]DDAA[3Thi]V[S8]FWQ-NH2
modifications: staple 1-4, 4-11
notes: Ac-PL3-Asp-Ala-B5-Asp-Asp-Ala-Ala-3Thi-Val-S8-Phe-Trp-Gln-NH2; stapled peptide composition

Starred links: 1 amine or outer side, 2 acyl side, 3 side chain; linkers in the order of their positions; H or OH if unused. Positions of bridges follow the written chain, without caps; N, C: chain ends. Non-standard residues stand in square brackets, D forms with d. Primed or numbered codes have the meaning given here. B5(11) = 2,2-bis(4-pentenyl)glycine = 2-amino-2-(pent-4-en-1-yl)hept-6-enoic acid (stitching residue, bears both staples), C=CCCCC(CCCC=C)(N[*:1])C(=O)[*:2]; B5(4) = 2,2-bis(4-pentenyl)glycine = 2-amino-2-(pent-4-en-1-yl)hept-6-enoic acid (stitching residue), C=CCCCC(CCCC=C)(N[*:1])C(=O)[*:2]; B5(14) = 2-amino-2-(pent-4-en-1-yl)hept-6-enoic acid (bis-pentenylglycine), C=CCCCC(CCCC=C)(N[*:1])C(=O)[*:2]; Phe(3-Cl) = N[C@@H](Cc1cccc(Cl)c1)C(=O)O; Phe(4-Cl) = N[C@@H](Cc1ccc(Cl)cc1)C(=O)O; Phe(4-NH2) = Nc1ccc(C[C@H](N)C(=O)O)cc1; Ala(2-furyl) = N[C@@H](Cc1ccco1)C(=O)O; His(τ-Me) = Cn1cnc(C[C@H](N)C(=O)O)c1; αAllylPro = C=CC[C@@]1(C(=O)O)CCCN1; 3Thi = N[C@@H](Cc1ccsc1)C(=O)O; S8 = C=CCCCCCC[C@](C)(N)C(=O)O

This assay has as its target T1, full-length beta-Catenin (Uniprot ID …). Kind of assay: FP competition vs 5FAM-TCF4(10-53) probe on full-length beta-catenin. As to the method: The plate was incubated protected from light for 60 minutes at 20° C. prior to read. Reads were performed on a CLARIOstar plate reader (BMG Labtech) in duplicate, and data were fitted to a 1:1 binding model with hill slope using an in-house script. All provided concentrations are final concentrations.
B1 showed an EC50 of 4.2 µM. In turn, B2 had an EC50 of 1.91 µM. Next, B3: 4.72 µM. For B4, the EC50 worked out at 5 µM. The EC50 values of the last two molecules are within 1.5-fold of each other. Next, B5: 5 µM; B6: 5 µM. The result for B7 reads 3.98 µM. Take B8: the EC50 amounted to 5 µM.

The molecule B9 displayed an EC50 of 5 µM. That is a single-digit micromolar value. Next, B10: 5 µM; B11: 5 µM. Next, B12: 1.75 µM.
